Results from FireProtDB (doi:10.1073/pnas.0910421107).

B1: Ribose import binding protein RbsB, P02925 (parent)
chain: MNMKKLATLVSAVALSATVSANAMAKDTIALVVSTLNNPFFVSLKDGAQKEADKLGYNLVVLDSQNNPAKELANVQDLTVRGTKILLINPTDSDAVGNAVKMANQANIPVITLDRQATKGEVVSHIASDNVLGGKIAGDYIAKKAGEGAKVIELQGIAGTSAARERGEGFQQAVAAHKFNVLASQPADFDRIKGLNVMQNLLTAHPDVQAVFAQNDEMALGALRALQTAGKSDVMVVGFDGTPDGEKAVNDGKLAATIAQLPDQIGAKGVETADKVLKGEKVQAKYPVDLKLVVKQ

Variants of: B1
Conditions: Escherichia coli (strain K12), pH 7.6, Thermal, MOPS 25 mM, Potassium chloride 100 mM, structure 2DRI, whole UniProt chain shown
[1] = 25 °C, Quantitative cysteine reactivity
[2] = Quantitative cysteine reactivity

Variant	unfolding enthalpy (van 't Hoff) [1]	unfolding free energy [1]	Tm (Activity)	change of melting temperature, mutant - wild type (higher = more stable) (Activity)	Tm [2]	change of melting temperature, mutant - wild type (higher = more stable) [2]	ddG of mutation (higher = less stable) (25 °C, Activity)	unfolding enthalpy (van 't Hoff) (25 °C, Activity)	unfolding free energy (25 °C, Activity)
A213C	91 kcal/mol	4.1 kcal/mol	56 °C	-6.6 °C	56 °C	-6.6 °C			
L87C	81 kcal/mol	3.2 kcal/mol	54 °C	-8.6 °C	54 °C	-8.6 °C	2.7 kcal/mol	81 kcal/mol	3.2 kcal/mol
